Source: patent US12648942B2, “Method for treating acute ischemic stroke” (Lumosa Therapeutics Co., LTD, priority 2021, dated 2026)

What was measured:
[1] = tested on: patients with Acute Ischemic Stroke (AIS); assay: Study 201: Phase 2 single-dose study in patients with Acute Ischemic Stroke, efficacy (NIHSS, mRS); type: in vivo, human; conditions: Day 90
Source text: The objective of this Phase 2, double-blind, single-dose, randomized, placebo-controlled study is to evaluate the safety, tolerability, and potential efficacy of DC009 drug product in patients with Acute Ischemic Stroke (AIS). The safety and potential efficacy outcomes from this Phase 2 study will guide the design of future studies in patients with acute ischemic stroke. Eligible patients will be randomized 2:1 to receive DC009 drug product or placebo via a 15-minute IV infusion to obtain a total of approximately 24 evaluable patients. Eligible patients will receive a single 0.025 mg/kg dose of DC009 drug product or placebo within 24 hours after the onset of stroke symptoms.
The key inclusion criteria are as follows: Subject a) are to be aged 18-90 years, inclusive, at the time of screening, b) have a NIHSS of 4-30, c) clinical diagnosis of AIS within 24 hours after stroke symptom onset.
Tissue plasminogen activator (alteplase) is the only approved drug treatment for stroke in the US and, per the labeling, must be administered within 3 hours of stroke symptom onset. The approved window of administration in other countries varies. Because there is no approved drug treatment for acute ischemic stroke for administration beyond 3 hours of stroke symptom onset in the US, a placebo-controlled study would be ethically acceptable and is necessary in order to evaluate the drug effect objectively. Preliminary efficacy will be evaluated by assessing the infarct volume, occurrence of recurrent stroke, neurological outcome measured by NIHSS and functional independence measured by Modified Rankin Scale (mRS).
• The occurrence of symptomatic intracranial hemorrhage (sICH) within 36 hours after dosing, clinical deterioration defined as an increase in the NIHSS of 4 points or more and confirmed by computed tomography or magnetic resonance imaging. Secondary Endpoint: • The occurrence of symptomatic intracranial hemorrhage (sICH) and asymptomatic intracranial hemorrhage (aICH) within 7 days after dosing • The occurrence of mortality due to intracerebral or other major bleeding complications within 24 hours, 7 days, 30 days, and 90 days after dosing. • Number and severity of AEs within 90 days after dosing • The occurrence of recurrent stroke within 90 days after dosing • Functional outcome such as mRS • Neurological outcome such as NIHSS at 30 days • The change of infarct volume in CT or MRI examination at 24 hours and 7 days • Plasma PK parameters of DC009 Results Baseline Characterization

[2] = Study 101: pharmacokinetics of single doses in healthy subjects; type: in vivo, human
Source text: (§1) The primary objective of this Phase 1, double-blind, randomized, placebo-controlled study was to determine the safety, tolerability, and pharmacokinetics of single ascending doses of DC009 drug product administered by 15-minute IV infusion in healthy subjects. The secondary objectives were to characterize the pharmacodynamics of single-ascending doses, explore the pharmacokinetic-pharmacodynamic relationships of single-ascending doses, and to determine the RP2D of the DC009 drug product.
(§2) The subject population was healthy adult male and female subjects between the ages of 18 and 65 years. Sixteen healthy subjects completed the study. All subjects received a single dose of DC009 drug product or placebo administered via a 15-minute IV infusion.
Cohort 1 (8 subjects) was administered 0.05 mg/kg DC009 drug product or placebo, and Cohort 0 (8 subjects) was administered 0.025 mg/kg DC009 drug product or placebo.
Primary Endpoints: • Nature and severity of adverse events (AEs) and number of subjects with AEs • Changes from baseline in vital signs, electrocardiogram (ECG) results, laboratory abnormalities, plasmin-antiplasmin complex, euglobulin clot lysis time, platelet aggregation, and physical examination findings • Pharmacokinetic parameters: maximum plasma concentration (Cmax), time to reach the observed maximum (peak) concentration (Tmax), area under the plasma concentration-time curve from time zero to the time of the last quantifiable concentration (AUC0-t), elimination half-life (T1/2), total body clearance of the drug from plasma (CL), and volume of distribution Secondary Endpoints • Pharmacodynamic effects of DC009 drug product on blood pressure, thrombin time (TT), prothrombin time (PT), euglobulin clot lysis time, and activated partial thromboplastin time (aPTT) up to 48 hours after dosing • Relationship between DC009 plasma concentrations and the selected PD and safety parameters • RP2D (recommended phase II dose) Results
The pharmacokinetic parameters of DC009 drug product were assessed included maximum plasma concentration (Cmax), time to reach Cmax (Tmax), area under the plasma concentration-time curve from time zero to infinity (AUC0-∞), area under the plasma concentration-time curve from time zero to the time of the last quantifiable concentration (AUC0-t), elimination half-life (T1/2), total body clearance of the drug from plasma (CL), and volume of distribution at steady state (Vss). A single sample of blood was collected at the following time points for the quantification of DC009 in plasma: at predose, 5, 10, 15 (end of infusion), 20, 25, 30, and 45 minutes; and at 1, 2, 4, 6, 12, 18, and 24 hours after infusion was initiated.

[3] = Human plasma pharmacokinetics, summary statements of the description; type: in vivo
[4] = Study 101: safety and tolerability of single doses in healthy subjects; type: in vivo; conditions: both sexes, human, plasma, intravenous; from Subject 001-008 and Subject 001-042, 0.05 mg/kg; read-out: Cmax at which DC009 was tolerable in human
Source text: as §1, §2
Cohort 1 (8 subjects) was administered 0.05 mg/kg DC009 drug product or placebo, and Cohort 0 (8 subjects) was administered 0.025 mg/kg DC009 drug product or placebo. […]

[5] = tested on: subjects with acute ischemic stroke (AIS); conditions: cited from earlier work
[6] = 0.025 mg/kg dose to the 0.05 mg/kg dose

| Compound | subjects with mRS of 0-1 ([1]; pre-dose 0%, 3 subjects) | subjects with mRS Score 3 ([1]; pre-dose 6%) | subjects with mRS Score 2 ([1]; pre-dose 13%) | subjects with mRS Score 5 or 4 ([1]; pre-dose 81%) | dose-normalized geometric mean ratio for AUC0-inf [2, 6] | dose-normalized geometric mean ratio for Cmax [2, 6] | time measurable in plasma samples after the start of the infusion ([2]; 0.025 and 0.05 mg/kg, single 15-minute IV infusion) | dose proportionality of exposure ([2]; 0.025 vs 0.05 mg/kg) | Cmax ([2]; Cohort 1, 0.05 mg/kg, single 15-minute IV infusion, individual subjects) | Cmax ([2]; both sexes, human, plasma, iv, 0.025 mg/kg, Cohort 0, 0.025 mg/kg, single 15-minute IV infusion, Mean ± SEM, read-out: Cmax) | Cmax ([2]; both sexes, human, plasma, iv, 0.05 mg/kg, Cohort 1, 0.05 mg/kg, single 15-minute IV infusion, Mean ± SEM, read-out: Cmax) | Cmax ([2]; both sexes, human, plasma, iv, 0.05 mg/kg, Cohort 1, 0.05 mg/kg, single 15-minute IV infusion, individual subjects, read-out: Cmax) | half-life ([2]; both sexes, human, plasma, iv, 0.025 and 0.05 mg/kg, single 15-minute IV infusion, read-out: T1/2, range) | half-life ([2]; both sexes, human, plasma, iv, 0.025 and 0.05 mg/kg, single 15-minute IV infusion, read-out: mean of T1/2 (converted)) | Tmax ([2]; both sexes, human, plasma, 0.025 and 0.05 mg/kg, single 15-minute IV infusion) | accumulation on multiple doses ([3]; administration of multiple doses) | plasma level after dosing ([3]; human plasma, 30 minutes after dosing) | half-life ([3]; human plasma, read-out: elimination half-life) | Cmax [4] | risk of symptomatic intracerebral hemorrhage [5] |
| --- | --- | --- | --- | --- | --- | --- | --- | --- | --- | --- | --- | --- | --- | --- | --- | --- | --- | --- | --- | --- |
| CC(NC(=O)C1CCCN1)C(=O)NC(CCCCN)C(=O)NCCCCC(NC(=O)C1Cc2cc(O)c(O)cc2C(C)(C)N1)C(=O)O (stereo not drawn) [DC009, 3S-6,7-dihydroxy-1,1-dimethyl-1,2,3,4-tetrahydro-isoquinoline-3-acyl-Lys(Pro-Ala-Lys)] | 21% | 29% | 29% | 21% | 1.40 | 1.46 | only measurable within the first half-hour | approximately dose proportional | 120 ng/mL | < 110 ng/mL | < 110 ng/mL | 152 ng/mL | 3 to 4.2 min | 3.24 min | 6 to 18 min | does not lead the accumulation | almost un-measurable | < 5 min | ~150 ng/mL | – |
| rtPA: Alteplase (Activase), a recombinant tissue-type plasminogen activator (rtPA) [reference compound] | – | – | – | – | – | – | – | – | – | – | – | – | – | – | – | – | – | – | – | ~5 fold |
